Assay results published in paper PMC4587339 (Journal of molecular biology, 2015).
Values joined by “and” are separate entries in the source; they are usually repeats but may differ in a detail not shown here. Equal entries are not always repeated.

T1: S-terminase (small terminase subunit) of bacteriophage P22, full length, MBP cleaved off (bacteriophage P22, UniProt P04893 1-162)
T1 sequence (looked up): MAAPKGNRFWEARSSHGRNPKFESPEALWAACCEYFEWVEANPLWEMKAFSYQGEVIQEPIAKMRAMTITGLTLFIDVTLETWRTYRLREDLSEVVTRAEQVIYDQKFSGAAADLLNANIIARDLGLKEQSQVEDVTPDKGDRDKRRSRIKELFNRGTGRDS

T2: MBP-tagged L-terminase Binding Domain of P22 S-terminase (residues 140-162) (bacteriophage P22, UniProt P04893 140-162)
T2 chain (looked up): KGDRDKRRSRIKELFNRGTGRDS

T3: full length L-terminase of bacteriophage P22, purified alone for the pull-down (bacteriophage P22, UniProt P26745 1-499)
T3 sequence (looked up): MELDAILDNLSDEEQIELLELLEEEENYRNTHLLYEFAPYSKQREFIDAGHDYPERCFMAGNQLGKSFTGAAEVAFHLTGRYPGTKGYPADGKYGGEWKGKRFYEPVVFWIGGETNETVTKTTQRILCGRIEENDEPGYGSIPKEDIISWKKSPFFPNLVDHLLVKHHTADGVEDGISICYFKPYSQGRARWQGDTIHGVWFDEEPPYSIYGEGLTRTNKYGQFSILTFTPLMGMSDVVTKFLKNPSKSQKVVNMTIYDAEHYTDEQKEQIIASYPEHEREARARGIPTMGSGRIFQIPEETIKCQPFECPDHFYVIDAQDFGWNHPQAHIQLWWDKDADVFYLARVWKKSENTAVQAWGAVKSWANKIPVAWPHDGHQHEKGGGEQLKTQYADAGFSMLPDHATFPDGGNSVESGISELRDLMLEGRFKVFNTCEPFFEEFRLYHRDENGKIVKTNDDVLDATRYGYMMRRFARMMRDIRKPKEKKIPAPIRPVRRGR

T4: L-terminase ATPase domain of bacteriophage P22 (residues 1-287) (bacteriophage P22, UniProt P26745 1-287)
T4 sequence (looked up): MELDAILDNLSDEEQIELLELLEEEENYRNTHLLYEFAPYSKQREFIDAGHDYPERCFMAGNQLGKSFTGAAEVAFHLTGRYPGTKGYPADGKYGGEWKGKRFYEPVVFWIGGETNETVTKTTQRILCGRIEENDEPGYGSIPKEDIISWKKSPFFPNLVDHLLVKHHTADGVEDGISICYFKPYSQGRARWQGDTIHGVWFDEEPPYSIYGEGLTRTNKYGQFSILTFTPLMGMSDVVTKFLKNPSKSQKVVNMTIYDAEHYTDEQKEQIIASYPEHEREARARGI

B1: L-terminase (large terminase subunit) of bacteriophage P22, full length, co-expressed (enzyme, UniProt P26745 1-499, looked up)
chain: T3 sequence (looked up)

Experiments:
[1] = target: T1, S-terminase (small terminase subunit) …; test: native MS
[2] = target: T2, MBP-tagged L-terminase Binding Domain …; test: AUC
[3] = target: T3, full length L-terminase of …; test: pull-down
[4] = target: T4, L-terminase ATPase domain of …; test: pull-down

| Binder | stoichiometry N [1] | stoichiometry N [2] | binding result [3] | binding result [4] |
| --- | --- | --- | --- | --- |
| B1 | 1 L-terminase per S-terminase nonamer and 2 L-terminase per S-terminase nonamer and 3 L-terminase per S-terminase nonamer | 1 L-terminase per MBP-LBD |  |  |
| KGDRDKRRSRIKELFNRGTGRDS (domain or fragment, bacteriophage P22, UniProt P04893 140-162, looked up) [GST-tagged L-terminase Binding Domain of P22 S-terminase (residues 140-162)] |  |  | binds | binds |
